Publication PMC10099770
Residue numbers refer to the chain shown, from its start. Numbers in names are those of the source.

T1: 14-3-3, P63104
T1 chain: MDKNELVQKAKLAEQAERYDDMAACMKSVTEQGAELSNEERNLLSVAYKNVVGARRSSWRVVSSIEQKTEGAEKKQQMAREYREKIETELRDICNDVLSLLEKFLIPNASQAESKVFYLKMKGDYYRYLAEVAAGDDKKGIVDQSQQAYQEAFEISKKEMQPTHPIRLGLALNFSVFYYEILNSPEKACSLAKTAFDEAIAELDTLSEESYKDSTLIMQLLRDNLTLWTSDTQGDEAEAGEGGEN

B1: FLAG-TNK1, Q13470 S502A (protein)
chain: MLPEAGSLWLLKLLRDIQLAQFYWPILEELNVTRPEHFDFVKPEDLDGIGMGRPAQRRLSEALKRLRSGPKSKNWVYKILGGFAPEHKEPTLPSDSPRHLPEPEGGLKCLIPEGAVCRGELLGSGCFGVVHRGLWTLPSGKSVPVAVKSLRVGPEGPMGTELGDFLREVSVMMNLEHPHVLRLHGLVLGQPLQMVMELAPLGSLHARLTAPAPTPPLLVALLCLFLRQLAGAMAYLGARGLVHRDLATRNLLLASPRTIKVADFGLVRPLGGARGRYVMGGPRPIPYAWCAPESLRHGAFSSASDVWMFGVTLWEMFSGGEEPWAGVPPYLILQRLEDRARLPRPPLCSRALYSLALRCWAPHPADRPSFSHLEGLLQEAGPSEACCVRDVTEPGALRMETGDPITVIEGSSSFHSPDSTIWKGQNGRTFKVGSFPASAVTLADAGGLPATRPVHRGTPARGDQHPGSIDGDRKKANLWDAPPARGQRRNMPLERMKGISRALESVLSLGPRPTGGGSSPPEIRQARAVPQGPPGLPPRPPLSSSSPQPSQPSRERLPWPKRKPPHNHPMGMPGARKAAALSGGLLSDPELQRKIMEVELSVHGVTHQECQTALGATGGDVVSAIRNLKVDQLFHLSSRSRADCWRILEHYQWDLSAASRYVLARP
B2: FLAG-TNK1, Q13470 S434A (protein)
chain: B1 chain with S434A, A502S
B3: FLAG-TNK1, Q13470 T392A (protein)
chain: B1 chain with T392A, A502S
B4: FLAG-TNK1, Q13470 T91A (protein)
chain: B1 chain with T91A, A502S
B5: FLAG-TNK1, Q13470 S68A (protein)
chain: B1 chain with S68A, A502S

Molecular target: T1, 14-3-3, P63104
Assay: co-immunoprecipitation (IP: FLAG) with immunoblot quantification
Settings: chain shown with the change; HEK293T cells; 3 biological replicates; parent: est. 1.0; read off a plot

ratio to parent	Molecule
0.14	B1
0.88	B2
0.67	B3
0.84	B4
0.8	B5

Molecular target: FLAG-AKAP13 T2467A (UniProt Q12802)
Sequence of UniProt Q12802 (Q12802 whole entry T2467A): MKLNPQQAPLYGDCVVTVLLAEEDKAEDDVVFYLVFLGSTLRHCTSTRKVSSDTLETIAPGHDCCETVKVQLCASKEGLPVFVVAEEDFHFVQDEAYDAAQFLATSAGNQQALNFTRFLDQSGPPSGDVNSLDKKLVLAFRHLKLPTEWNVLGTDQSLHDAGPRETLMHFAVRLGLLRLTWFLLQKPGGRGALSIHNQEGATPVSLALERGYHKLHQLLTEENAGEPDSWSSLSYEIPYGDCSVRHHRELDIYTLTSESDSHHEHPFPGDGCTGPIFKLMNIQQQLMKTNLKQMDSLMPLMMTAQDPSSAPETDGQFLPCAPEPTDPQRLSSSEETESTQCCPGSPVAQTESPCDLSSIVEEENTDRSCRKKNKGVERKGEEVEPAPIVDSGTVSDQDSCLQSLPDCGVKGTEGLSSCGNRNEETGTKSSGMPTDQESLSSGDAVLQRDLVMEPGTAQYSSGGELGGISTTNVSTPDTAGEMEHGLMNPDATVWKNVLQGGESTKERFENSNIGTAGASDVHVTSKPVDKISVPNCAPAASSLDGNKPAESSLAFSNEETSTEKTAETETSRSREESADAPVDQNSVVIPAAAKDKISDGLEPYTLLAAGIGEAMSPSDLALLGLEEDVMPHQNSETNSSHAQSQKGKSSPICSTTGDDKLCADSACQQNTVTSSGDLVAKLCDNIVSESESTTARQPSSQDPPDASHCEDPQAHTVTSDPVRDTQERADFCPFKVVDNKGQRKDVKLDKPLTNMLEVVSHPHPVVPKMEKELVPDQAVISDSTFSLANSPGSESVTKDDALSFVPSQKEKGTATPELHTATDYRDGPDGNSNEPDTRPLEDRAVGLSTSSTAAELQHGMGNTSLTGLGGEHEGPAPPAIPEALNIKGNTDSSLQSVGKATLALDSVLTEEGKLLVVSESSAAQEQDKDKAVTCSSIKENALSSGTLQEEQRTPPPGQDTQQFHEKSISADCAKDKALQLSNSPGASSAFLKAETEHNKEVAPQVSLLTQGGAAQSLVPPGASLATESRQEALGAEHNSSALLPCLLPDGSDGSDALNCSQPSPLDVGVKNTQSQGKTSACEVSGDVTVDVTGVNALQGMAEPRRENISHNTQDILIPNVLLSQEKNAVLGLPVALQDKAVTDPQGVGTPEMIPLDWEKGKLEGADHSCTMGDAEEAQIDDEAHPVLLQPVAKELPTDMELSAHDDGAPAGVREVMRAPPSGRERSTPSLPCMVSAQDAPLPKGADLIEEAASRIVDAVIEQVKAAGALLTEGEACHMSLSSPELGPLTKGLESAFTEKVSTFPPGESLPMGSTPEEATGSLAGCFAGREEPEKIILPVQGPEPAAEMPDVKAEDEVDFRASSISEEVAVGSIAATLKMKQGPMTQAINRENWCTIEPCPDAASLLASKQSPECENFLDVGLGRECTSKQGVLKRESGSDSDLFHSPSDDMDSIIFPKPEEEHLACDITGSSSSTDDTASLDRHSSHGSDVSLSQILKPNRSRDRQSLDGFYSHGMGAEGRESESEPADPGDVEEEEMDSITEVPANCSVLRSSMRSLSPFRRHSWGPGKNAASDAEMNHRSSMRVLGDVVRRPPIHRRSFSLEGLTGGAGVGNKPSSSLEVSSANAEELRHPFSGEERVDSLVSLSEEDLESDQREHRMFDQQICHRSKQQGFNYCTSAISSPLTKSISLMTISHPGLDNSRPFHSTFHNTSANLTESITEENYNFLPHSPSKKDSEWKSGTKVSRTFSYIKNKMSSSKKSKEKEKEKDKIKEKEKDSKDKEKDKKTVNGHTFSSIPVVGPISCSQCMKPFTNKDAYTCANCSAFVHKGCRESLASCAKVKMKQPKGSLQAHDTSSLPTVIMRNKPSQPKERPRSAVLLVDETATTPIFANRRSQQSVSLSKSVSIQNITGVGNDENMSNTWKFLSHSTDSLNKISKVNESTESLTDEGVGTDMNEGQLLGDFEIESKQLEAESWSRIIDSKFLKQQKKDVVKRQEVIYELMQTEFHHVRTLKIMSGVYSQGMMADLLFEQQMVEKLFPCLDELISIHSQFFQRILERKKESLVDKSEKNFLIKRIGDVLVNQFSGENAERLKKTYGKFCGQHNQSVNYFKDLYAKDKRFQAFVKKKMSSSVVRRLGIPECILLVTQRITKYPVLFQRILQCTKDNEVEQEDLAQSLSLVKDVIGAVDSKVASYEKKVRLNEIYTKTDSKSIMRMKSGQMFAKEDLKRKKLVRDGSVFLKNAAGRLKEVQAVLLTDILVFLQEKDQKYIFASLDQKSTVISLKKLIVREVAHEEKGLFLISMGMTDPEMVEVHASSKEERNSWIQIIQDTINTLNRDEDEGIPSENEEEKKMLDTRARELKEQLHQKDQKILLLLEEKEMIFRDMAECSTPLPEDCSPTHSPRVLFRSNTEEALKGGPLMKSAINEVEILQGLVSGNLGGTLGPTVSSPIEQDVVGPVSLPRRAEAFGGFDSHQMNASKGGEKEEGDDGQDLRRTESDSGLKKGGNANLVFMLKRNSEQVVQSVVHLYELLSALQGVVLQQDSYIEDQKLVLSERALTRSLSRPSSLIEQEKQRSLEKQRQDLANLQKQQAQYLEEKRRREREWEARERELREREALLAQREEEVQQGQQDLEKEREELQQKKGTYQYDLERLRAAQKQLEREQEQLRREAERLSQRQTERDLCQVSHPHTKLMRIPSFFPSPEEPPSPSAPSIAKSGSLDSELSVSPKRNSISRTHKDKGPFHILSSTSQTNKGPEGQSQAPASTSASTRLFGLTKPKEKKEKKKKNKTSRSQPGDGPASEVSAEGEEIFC
Assay: co-IP; FLAG construct precipitated from transfected HEK293T lysate on anti-DYKDDDDK resin or DYKDDDDK Fab-Trap agarose, 1 hour at 4 °C; lysis buffer 10 mM HEPES KOH pH 7.5, 150 mM KCl, 0.01% IGEPAL with protease and phosphatase inhibitors; washed with PBS three times; immunoblot for 14-3-3
Settings: not given

loss of co-precipitated 14-3-3 against wild-type AKAP13	Molecule
> 50%	14-3-3 (from UniProt P63104 1-245) (natural protein)
